Test results as given in article PMC7691508 (Nature Communications, 2020).

Key:
[1] = target: T1, IFN regulatory factor 3 (IRF3) (mouse (endogenous in peritoneal macrophages, RAW264.7, L929, MEFs)), P70671; experiment: native gel or EMSA; settings: remark: other sources report otherwise
T1 chain: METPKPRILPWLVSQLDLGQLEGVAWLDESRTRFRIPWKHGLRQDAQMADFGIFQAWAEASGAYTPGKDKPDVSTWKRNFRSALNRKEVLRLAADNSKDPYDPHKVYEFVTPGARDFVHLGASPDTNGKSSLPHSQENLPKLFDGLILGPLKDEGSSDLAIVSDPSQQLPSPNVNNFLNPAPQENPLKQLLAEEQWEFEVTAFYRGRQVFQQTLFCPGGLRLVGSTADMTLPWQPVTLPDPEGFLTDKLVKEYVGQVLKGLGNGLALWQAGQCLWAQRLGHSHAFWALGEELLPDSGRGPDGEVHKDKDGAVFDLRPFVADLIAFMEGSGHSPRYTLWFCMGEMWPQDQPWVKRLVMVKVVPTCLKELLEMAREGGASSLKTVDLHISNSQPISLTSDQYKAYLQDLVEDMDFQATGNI

[2] = target: the molecule itself; experiment: native gel or EMSA

B1: IFN regulatory factor 3 (IRF3), P70671 1-419 (natural protein)
chain: T1 chain
For B1, the stoichiometry N [1] was 2.

B2: stimulator of interferon genes (STING) (natural protein)
chain: MPYSNLHPAIPRPRGHRSKYVALIFLVASLMILWVAKDPPNHTLKYLALHLASHELGLLLKNLCCLAEELCHVQSRYQGSYWKAVRACLGCPIHCMAMILLSSYFYFLQNTADIYLSWMFGLLVLYKSLSMLLGLQSLTPAEVSAVCEEKKLNVAHGLAWSYYIGYLRLILPGLQARIRMFNQLHNNMLSGAGSRRLYILFPLDCGVPDNLSVVDPNIRFRDMLPQQNIDRAGIKNRVYSNSVYEILENGQPAGVCILEYATPLQTLFAMSQDAKAGFSREDRLEQAKLFCRTLEEILEDVPESRNNCRLIVYQEPTDGNSFSLSQEVLRHIRQEEKEEVTMNAPMTSVAPPPSVLSQEPRLLISGMDQPLPLRTDLI
In the case of B2, the “stoichiometry N” value [2] is reported as 2.
